Results from patent US20200222518A1 (BOARD OF SUPERVISORS OF LOUISIANA STATE UNIVERSITY AND …, published 2020).

T1: Met6 peptide (Candida albicans)
T1 construct: Synthetic 14-mer (GenScript) from the N-terminus of the C. albicans Met6 cell wall protein
T1 peptide: PRIGGQRELKKITEC

T2: Fba peptide (Candida albicans)
T2 construct: Synthetic 14-mer (GenScript) from the N-terminus of C. albicans fructose-bisphosphate aldolase
T2 peptide: YGKDVKDLFDYAQEC

B1: 2B10C1 (antibody, V domains shown)
VH: QVQLQQPGAEVVRPGASVKVSCKASGYTVSSYWMSWVKQRPEQGLEWIGRIDPYDSETHYNQKFKDKAILTVDKSSSTAYMQLSSLTSEDSAVYYCARTAASFDYWGQGTTLTVSS
VL: DVVMTQTPLSLPVSLGDQASISCRSSQSLVHSNGNSYLHWYLQKPGQSPKLLIYKVSNRFSGVPDRFSGSGSGTDFTLNISRVEAEDLGVYFCSQSTHVPFTFGSGTKLEIK
notes: Mouse hybridoma mAb, IgG1; The entries are 135 AA and 131 AA and their DNA starts with ATG, so they may include the leader peptide; The limits are printed only as drawings and no residues were cut; also called 2810C1
B2: 2D5F7 (antibody, V domains shown)
VH: QVQLQQSAAELARPGASVKMSCKASGYTFSSYTMHWVKQRPGQGLEWIGYINPSSGYTDYNQKFKDKTTLTADKSSSTAYMQLSSLTSEDSAVYYCARLYDNYDYYAMDYWGQGTSVTVSS
VL: DIVMSQSPSSLAVSAGEKVTMSCKSSQSLLNSRIRKNYLAWYQQKPGQSPKLLIYWASTRESGVPDRFTGSGSGTDFTLTISSVQADDLAVYYCKQSYNLLTFGAGTKLELK
notes: Mouse hybridoma mAb, IgG2b; The entries are 140 AA and 132 AA and their DNA starts with ATG, so they may include the leader peptide; The limits are printed only as drawings and no residues were cut

Legend:
[1] = target: T1, Met6 peptide; experiment: specificity listed in table; hybridomas screened by anti-peptide ELISA
[2] = target: T2, Fba peptide; experiment: as above

Row | Binder | binding result [1] | binding result [2]
1 | B1 | binds | 
2 | B2 |  | binds
